{
  "source": "paper PMC9654404",
  "about": "“Functional Characterization and Screening of Promiscuous Kinases and Isopentenyl Phosphate Kinases for the Synthesis of DMAPP via a One-Pot Enzymatic Cascade” (International Journal of Molecular Sciences, 2022)",
  "key": {"[1]": {"substrate": "CC(C)=CCO", "experiment": "ADP formation, ADP colorimetric/fluorometric assay kit, Michaelis-Menten fit", "assay_type": "biochemical, Shigella flexneri", "details": "ATP co-substrate, 2 mM MgCl2, 50 mM buffer, optimal conditions (optimum pH 9.0, 55 °C), apparent Km"}, "[2]": {"substrate": "CC(C)=CCO", "experiment": "ADP formation, ADP colorimetric/fluorometric assay kit, Michaelis-Menten fit", "assay_type": "biochemical, Escherichia coli", "details": "ATP co-substrate, 2 mM MgCl2, 50 mM buffer, optimal conditions (optimum pH 5.5, 50 °C), apparent Km"}, "purified protein [3]": {"substrate": "CC(C)=CCO", "experiment": "purified protein", "details": "ATP co-substrate, 2 mM MgCl2, 50 mM buffer, optimal conditions (optimum pH 7.5, 30 °C), apparent Km, 30.0 °C"}, "purified protein [4]": {"substrate": "CC(C)=CCOP(=O)(O)O", "experiment": "purified protein", "details": "ATP co-substrate, 2 mM MgCl2, 50 mM buffer, DMAP made enzymatically with SfPK, apparent Km"}},
  "data": [
    {"protein": "SfPK (Shigella flexneri promiscuous kinase) (Shigella flexneri) (protein) SIPPGNDVTTKPDLYYLTNDNAIDSLALLPPPPQIGSIAFLNDQAMYEKGRLLRNTERGKLAAEDANLSSGGVANVFSAAFGSPITAKDSPELHKLLTNMIEDAGDLATRSAKEYYMRIRPFAFYGVSTCNTKEQDTLSRNGSYPSGHTSIGWATALVLSEINPARQDTILKRGYELGDSRVICGYHWQSDVDAARIVGSAIVATLHSNPVFQAQLQKAKDEFANNQKK", "values": [
      {"measurement": "Km", "setting": "[1]", "value": 0.016, "unit": "mM"}
    ]},
    {"protein": "EcPK (Escherichia coli promiscuous kinase) (Escherichia coli K-12) (protein) MQVDLLGSAQSAHALHLFHQHSPLVHCMTNDVVQTFTANTLLALGASPAMVIETEEASQFAAIASALLINVGTLTQPRAQAMRAAVEQAKSSQTPWTLDPVAVGALDYRRHFCHELLSFKPAAIRGNASEIMALAGIANGGRGVDTTDAAANAIPAAQTLARETGAIVVVTGEMDYVTDGHRIIGIHGGDPLMTKVVGTGCALSAVVAACCALPGDTLENVASACHWMKQAGERAVARSEGPGSFVPHFLDALWQLTQEVQA", "values": [
      {"measurement": "Km", "setting": "[2]", "value": 0.93, "unit": "mM"}
    ]},
    {"protein": "ScPK (Saccharomyces cerevisiae promiscuous kinase) (Saccharomyces cerevisiae S288C) (protein) MVQESRPGSVRSYSVGYQARSRSSSQRRHSLTRQRSSQRLIRTISIESDVSNITDDDDLRAVNEGVAGVQLDVSETANKGPRRASATDVTDSLGSTSSEYIEIPFVKETLDASLPSDYLKQDILNLIQSLKISKWYNNKKIQPVAQDMNLVKISGAMTNAIFKVEYPKLPSLLLRIYGPNIDNIIDREYELQILARLSLKNIGPSLYGCFVNGRFEQFLENSKTLTKDDIRNWKNSQRIARRMKELHVGVPLLSSERKNGSACWQKINQWLRTIEKVDQWVGDPKNIENSLLCENWSKFMDIVDRYHKWLISQEQGIEQVNKNLIFCHNDAQYGNLLFTAPVMNTPSLYTAPSSTSLTSQSSSLFPSSSNVIVDDIINPPKQEQSQDSKLVVIDFEYAGANPAAYDLANHLSEWMYDYNNAKAPHQCHADRYPDKEQVLNFLYSYVSHLRGGAKEPIDEEVQRLYKSIIQWRPTVQLFWSLWAILQSGKLEKKEASTAITREEIGPNGKKYIIKTEPESPEEDFVENDDEPEAGVSIDTFDYMAYGRDKIAVFWGDLIGLGIITEEECKNFSSFKFLDTSYL", "values": [
      {"measurement": "Km", "setting": "purified protein [3]", "value": 1.25, "unit": "mM"}
    ]},
    {"protein": "MtIPK (Methanolobus tindarius isopentenyl phosphate kinase) (Methanolobus tindarius DSM 2278) (protein) MDNNNITILKIGGSVITDKSADDGTARLSEIERIAAEISGFEGKLIIVHGAGSFGHPQVKRFGLTGKFDHEGSIITHMSVRKLNTMVVETLNSAGINALPVHPMACAISSNSRIKSMFREQIEEMLANGFVPVLHGDMVMDTDLGTSVLSGDQIVPYLAIQMKASRIGIGSAEEGVLDDKGGVIPLINNENFDEIKAYLSGSANTDVTGGMLGKVLELLELSEQSNSTSYIFNAGNTGNISDFLSGKNIGTAIGAGTI", "values": [
      {"measurement": "Km", "setting": "purified protein [4]; optimal conditions (optimum pH 7.5, 35 °C), 35.0 °C", "value": 0.065, "unit": "mM"}
    ]},
    {"protein": "MthIPK (Methanothermobacter thermautotrophicus isopentenyl phosphate kinase) (Methanothermobacter thermautotrophicus str. Delta H) (protein) MIILKLGGSVITRKDSEEPAIDRDNLERIASEIGNASPSSLMIVHGAGSFGHPFAGEYRIGSEIENEEDLRRRRFGFALTQNWVKKLNSHVCDALLAEGIPAVSMQPSAFIRAHAGRISHADISLIRSYLEEGMVPVVYGDVVLDSDRRLKFSVISGDQLINHFSLRLMPERVILGTDVDGVYTRNPKKHPDARLLDVIGSLDDLESLDGTLNTDVTGGMVGKIRELLLLAEKGVESEIINAAVPGNIERALLGEEVRGTRITGKH", "values": [
      {"measurement": "Km", "setting": "purified protein [4]; optimal conditions (optimum pH 7.5, 30 °C), 30.0 °C", "value": 0.116, "unit": "mM"}
    ]}
  ]
}
